Measurements published in patent US20200085917A1.

Experiments:
Experiment in all cases: GST pull-down, LC-MS/MS
[1] = target: Etfa_IPI:IPI00116753.4 (mouse) (UniProt Q99LC5)
[2] = target: Pnkd_IPI:IPI00187405.4 (mouse) (UniProt Q69ZP3)
[3] = target: Rab2a_IPI:IPI00137227.1 (mouse) (UniProt P53994)
[4] = target: Gstk1_IPI:IPI00121051.3 (mouse) (UniProt Q9DCM2)
[5] = target: Pptc7_IPI:IPI00421081.3 (mouse) (UniProt Q6NVE9)
[6] = target: Acadsb_IPI:IPI00119842.1 (mouse) (UniProt Q9DBL1)
[7] = target: Iscu_IPI:IPI00110578.1 (mouse) (UniProt Q9D7P6)
Chain of Iscu_IPI:IPI00110578.1 (mouse) (Q9D7P6 36-168 limits assumed): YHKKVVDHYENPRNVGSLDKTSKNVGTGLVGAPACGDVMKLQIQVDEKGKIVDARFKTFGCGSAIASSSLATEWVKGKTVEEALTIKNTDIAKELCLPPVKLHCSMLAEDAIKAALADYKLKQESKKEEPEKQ

[8] = target: Cisd1_IPI:IPI00128346.1 (mouse) (UniProt Q91WS0)
Chain of Cisd1_IPI:IPI00128346.1 (mouse) (Q91WS0 whole entry): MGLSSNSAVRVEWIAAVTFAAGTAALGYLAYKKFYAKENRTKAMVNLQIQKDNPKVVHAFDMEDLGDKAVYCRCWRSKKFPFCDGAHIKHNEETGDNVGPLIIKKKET

[9] = target: Letm1_IPI:IPI00131177.1 (mouse) (UniProt Q9Z2I0)
[10] = target: Lyrm4_IPI:IPI00169804.1 (mouse) (UniProt Q8K215)
Chain of Lyrm4_IPI:IPI00169804.1 (mouse) (Q8K215 whole entry): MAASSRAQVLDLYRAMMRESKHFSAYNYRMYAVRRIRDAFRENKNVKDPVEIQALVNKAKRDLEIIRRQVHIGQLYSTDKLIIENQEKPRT

[11] = target: Isca2_IPI:IPI00120671.2 (mouse) (UniProt Q9DCB8)
[12] = target: Dnaja3_IPI:IPI00120414.1 (mouse) (UniProt Q99M87)
Chain of Dnaja3_IPI:IPI00120414.1 (mouse) (Q99M87 whole entry): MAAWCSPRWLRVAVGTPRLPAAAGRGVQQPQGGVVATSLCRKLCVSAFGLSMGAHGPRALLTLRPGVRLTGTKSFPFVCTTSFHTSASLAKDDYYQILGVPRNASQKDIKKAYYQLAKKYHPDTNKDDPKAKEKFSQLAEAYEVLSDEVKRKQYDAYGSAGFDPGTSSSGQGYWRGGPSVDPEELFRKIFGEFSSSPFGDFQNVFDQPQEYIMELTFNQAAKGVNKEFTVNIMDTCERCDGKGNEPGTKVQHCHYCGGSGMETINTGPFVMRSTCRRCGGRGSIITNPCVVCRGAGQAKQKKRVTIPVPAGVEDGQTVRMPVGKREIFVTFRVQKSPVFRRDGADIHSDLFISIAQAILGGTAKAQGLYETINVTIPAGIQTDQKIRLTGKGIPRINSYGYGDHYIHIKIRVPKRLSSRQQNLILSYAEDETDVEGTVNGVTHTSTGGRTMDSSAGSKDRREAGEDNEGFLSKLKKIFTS

[13] = target: Atp1a1_IPI:IPI00311682.5 (mouse) (UniProt Q8VDN2)
[14] = target: Slc6a11_IPI:IPI00136867.1 (mouse) (UniProt P31650)
Chain of Slc6a11_IPI:IPI00136867.1 (mouse) (P31650 whole entry): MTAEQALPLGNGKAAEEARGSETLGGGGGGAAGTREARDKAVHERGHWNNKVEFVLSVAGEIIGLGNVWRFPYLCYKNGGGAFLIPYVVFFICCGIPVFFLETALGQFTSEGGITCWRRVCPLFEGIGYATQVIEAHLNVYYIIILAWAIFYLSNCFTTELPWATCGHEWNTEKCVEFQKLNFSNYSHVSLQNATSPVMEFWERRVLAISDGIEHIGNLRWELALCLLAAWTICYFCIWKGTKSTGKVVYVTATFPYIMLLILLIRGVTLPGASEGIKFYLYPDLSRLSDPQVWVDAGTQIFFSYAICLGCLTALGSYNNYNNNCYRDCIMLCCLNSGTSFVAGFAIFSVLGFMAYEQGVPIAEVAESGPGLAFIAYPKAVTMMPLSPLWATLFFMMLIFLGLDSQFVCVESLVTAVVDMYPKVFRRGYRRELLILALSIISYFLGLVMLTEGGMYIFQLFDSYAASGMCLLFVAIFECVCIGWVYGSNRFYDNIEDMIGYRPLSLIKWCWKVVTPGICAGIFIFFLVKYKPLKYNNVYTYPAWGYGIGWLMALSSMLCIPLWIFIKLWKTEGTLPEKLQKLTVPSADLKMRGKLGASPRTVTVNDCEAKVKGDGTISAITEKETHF

[15] = target: Ywhaq_IPI:IPI00408378.4 (mouse) (UniProt P68254)
Chain of Ywhaq_IPI:IPI00408378.4 (mouse) (P68254 whole entry): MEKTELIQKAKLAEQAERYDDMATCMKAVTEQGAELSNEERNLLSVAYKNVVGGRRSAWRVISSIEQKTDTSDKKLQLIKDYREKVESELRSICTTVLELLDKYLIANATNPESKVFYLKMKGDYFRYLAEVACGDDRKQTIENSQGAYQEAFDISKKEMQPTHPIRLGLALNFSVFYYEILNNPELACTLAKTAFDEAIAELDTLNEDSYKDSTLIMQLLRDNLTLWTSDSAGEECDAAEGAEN

[16] = target: Ppdpf_IPI:IPI00133078.1 (mouse) (UniProt Q9CR37)
Chain of Ppdpf_IPI:IPI00133078.1 (mouse) (Q9CR37 whole entry): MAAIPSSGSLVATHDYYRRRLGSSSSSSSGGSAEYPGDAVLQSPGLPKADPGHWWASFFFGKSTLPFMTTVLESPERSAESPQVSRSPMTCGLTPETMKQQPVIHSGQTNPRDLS

[17] = target: Pycr2_IPI:IPI00123278.1 (mouse) (UniProt Q922Q4)
Chain of Pycr2_IPI:IPI00123278.1 (mouse) (Q922Q4 2-320 limits assumed): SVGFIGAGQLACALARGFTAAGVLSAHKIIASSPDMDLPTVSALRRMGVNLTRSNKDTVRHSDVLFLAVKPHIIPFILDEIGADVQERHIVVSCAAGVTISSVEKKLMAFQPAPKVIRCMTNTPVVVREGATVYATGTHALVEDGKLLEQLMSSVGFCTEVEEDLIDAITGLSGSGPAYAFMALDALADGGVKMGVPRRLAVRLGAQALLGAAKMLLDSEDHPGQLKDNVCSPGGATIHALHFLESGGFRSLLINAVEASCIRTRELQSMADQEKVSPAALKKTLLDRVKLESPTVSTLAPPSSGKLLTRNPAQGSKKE

[18] = target: LOC100044454_IPI:IPI00135284.1 (mouse)
[19] = target: Gnb3_IPI:IPI00116938.1 (mouse) (UniProt Q61011)
Chain of Gnb3_IPI:IPI00116938.1 (mouse) (Q61011 whole entry): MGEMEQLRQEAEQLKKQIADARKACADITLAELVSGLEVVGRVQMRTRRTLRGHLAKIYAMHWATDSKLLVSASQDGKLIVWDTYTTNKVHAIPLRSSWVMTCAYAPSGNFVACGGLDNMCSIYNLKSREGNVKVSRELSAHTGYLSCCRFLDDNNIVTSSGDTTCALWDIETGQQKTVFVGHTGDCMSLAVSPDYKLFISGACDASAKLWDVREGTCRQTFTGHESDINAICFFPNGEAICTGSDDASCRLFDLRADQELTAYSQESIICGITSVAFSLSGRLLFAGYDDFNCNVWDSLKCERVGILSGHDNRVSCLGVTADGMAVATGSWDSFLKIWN

[20] = target: Afg3l2_IPI:IPI00170357.5 (mouse) (UniProt Q8JZQ2)
Chain of Afg3l2_IPI:IPI00170357.5 (mouse) (Q8JZQ2 67-802 limits assumed): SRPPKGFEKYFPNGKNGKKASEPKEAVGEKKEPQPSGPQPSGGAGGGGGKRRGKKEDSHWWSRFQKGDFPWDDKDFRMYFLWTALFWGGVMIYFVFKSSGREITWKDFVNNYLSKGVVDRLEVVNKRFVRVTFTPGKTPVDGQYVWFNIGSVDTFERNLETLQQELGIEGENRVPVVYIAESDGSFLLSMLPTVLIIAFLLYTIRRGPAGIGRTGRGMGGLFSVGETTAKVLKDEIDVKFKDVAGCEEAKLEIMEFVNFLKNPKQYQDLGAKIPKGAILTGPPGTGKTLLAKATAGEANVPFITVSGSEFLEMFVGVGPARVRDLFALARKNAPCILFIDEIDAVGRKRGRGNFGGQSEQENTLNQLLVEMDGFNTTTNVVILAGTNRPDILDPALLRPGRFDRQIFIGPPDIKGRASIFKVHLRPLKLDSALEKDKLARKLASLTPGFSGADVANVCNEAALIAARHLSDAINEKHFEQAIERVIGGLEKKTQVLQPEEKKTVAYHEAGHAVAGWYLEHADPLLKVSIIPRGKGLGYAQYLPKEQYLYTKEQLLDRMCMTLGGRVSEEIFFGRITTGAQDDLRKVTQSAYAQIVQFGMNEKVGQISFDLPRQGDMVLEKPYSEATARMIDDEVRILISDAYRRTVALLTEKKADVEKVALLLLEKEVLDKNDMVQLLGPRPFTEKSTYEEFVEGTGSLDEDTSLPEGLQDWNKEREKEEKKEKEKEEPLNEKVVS

[21] = target: Mpst_IPI:IPI00604945.2 (mouse) (UniProt Q99J99)
[22] = target: Slc25a19_IPI:IPI00118826.1 (mouse) (UniProt Q9DAM5)
[23] = target: Dci_IPI:IPI00114416.1 (mouse) (UniProt P42125)
[24] = target: Synj2bp_IPI:IPI00109206.1 (mouse) (UniProt Q9D6K5)
[25] = target: 2900010M23Rik_IPI:IPI00133350.1 (mouse)
[26] = target: Chchd4_IPI:IPI00124389.1 (mouse) (UniProt Q8VEA4)
Chain of Chchd4_IPI:IPI00124389.1 (mouse) (Q8VEA4 whole entry): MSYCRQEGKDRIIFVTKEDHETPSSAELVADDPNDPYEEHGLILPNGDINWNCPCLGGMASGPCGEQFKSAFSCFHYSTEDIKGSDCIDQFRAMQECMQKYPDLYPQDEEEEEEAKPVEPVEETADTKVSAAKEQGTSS

[27] = target: Hmgcl_IPI:IPI00379694.4 (mouse) (UniProt P38060)
[28] = target: Suclg2_IPI:IPI00459487.3 (mouse) (UniProt Q9Z2I8)
Chain of Suclg2_IPI:IPI00459487.3 (mouse) (Q9Z2I8 39-433 limits assumed): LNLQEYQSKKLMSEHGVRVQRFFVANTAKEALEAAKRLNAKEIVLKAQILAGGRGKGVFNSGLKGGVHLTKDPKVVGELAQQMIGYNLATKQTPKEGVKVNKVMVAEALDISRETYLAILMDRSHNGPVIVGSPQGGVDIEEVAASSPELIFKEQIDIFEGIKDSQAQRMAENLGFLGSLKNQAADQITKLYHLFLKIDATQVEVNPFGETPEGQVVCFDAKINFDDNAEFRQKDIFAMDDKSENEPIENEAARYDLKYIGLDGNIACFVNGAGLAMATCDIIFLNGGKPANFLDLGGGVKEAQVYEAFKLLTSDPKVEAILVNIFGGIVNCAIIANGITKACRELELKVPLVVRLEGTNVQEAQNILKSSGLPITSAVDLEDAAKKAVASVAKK

[29] = target: Rdh13_IPI:IPI00229040.1 (mouse) (UniProt Q8CEE7)
Chain of Rdh13_IPI:IPI00229040.1 (mouse) (Q8CEE7 2-334 limits assumed): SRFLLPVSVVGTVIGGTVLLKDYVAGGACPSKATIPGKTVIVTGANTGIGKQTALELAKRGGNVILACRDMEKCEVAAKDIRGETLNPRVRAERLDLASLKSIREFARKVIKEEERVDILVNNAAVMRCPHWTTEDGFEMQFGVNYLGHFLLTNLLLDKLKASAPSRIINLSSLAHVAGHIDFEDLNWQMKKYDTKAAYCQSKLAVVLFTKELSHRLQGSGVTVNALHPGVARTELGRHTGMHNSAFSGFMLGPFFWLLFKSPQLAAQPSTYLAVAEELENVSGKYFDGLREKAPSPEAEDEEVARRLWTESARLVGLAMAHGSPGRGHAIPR

[30] = target: Gm6180_IPI:IPI00409405.2 (mouse)
[31] = target: Coq5_IPI:IPI00379695.2 (mouse) (UniProt Q9CXI0)
[32] = target: Hint2_IPI:IPI00133034.3 (mouse) (UniProt Q9D0S9)
[33] = target: Cplx1_IPI:IPI00132278.1 (mouse) (UniProt P63040)

Chain of Gstk1_IPI:IPI00121051.3 (mouse) (Q9DCM2 whole entry): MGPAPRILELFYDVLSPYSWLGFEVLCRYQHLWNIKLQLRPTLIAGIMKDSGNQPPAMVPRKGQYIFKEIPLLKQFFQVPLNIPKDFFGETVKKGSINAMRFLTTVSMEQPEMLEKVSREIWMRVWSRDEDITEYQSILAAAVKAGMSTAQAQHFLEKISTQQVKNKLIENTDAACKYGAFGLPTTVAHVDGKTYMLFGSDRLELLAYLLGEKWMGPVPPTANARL
Chain of Pptc7_IPI:IPI00421081.3 (mouse) (Q6NVE9 75-310 limits assumed): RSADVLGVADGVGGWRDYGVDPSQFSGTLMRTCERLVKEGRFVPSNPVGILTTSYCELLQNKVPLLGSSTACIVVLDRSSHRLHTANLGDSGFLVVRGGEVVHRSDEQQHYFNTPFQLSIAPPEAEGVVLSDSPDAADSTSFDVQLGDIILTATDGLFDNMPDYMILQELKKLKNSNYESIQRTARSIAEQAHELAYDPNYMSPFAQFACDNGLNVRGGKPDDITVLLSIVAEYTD
Chain of GST-Httex1-97Q (P08515 1-218, tags or fused parts left off): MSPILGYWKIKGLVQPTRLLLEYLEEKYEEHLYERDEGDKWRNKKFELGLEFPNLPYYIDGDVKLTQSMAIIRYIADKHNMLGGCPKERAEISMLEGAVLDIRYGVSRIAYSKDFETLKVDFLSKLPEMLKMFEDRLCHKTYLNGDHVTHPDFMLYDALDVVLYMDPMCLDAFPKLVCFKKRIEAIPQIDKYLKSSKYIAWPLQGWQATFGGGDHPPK

GST-Httex1-97Q (from UniProt P08515 1-218; P42858 1-88)
3 peptides: No. of unique peptides [1] | No. of total peptides [8] | No. of total peptides [11] | No. of unique peptides [11] | No. of total peptides [18] | No. of unique peptides [18]
4 peptides: No. of total peptides [1] | No. of total peptides [9] | No. of unique peptides [9] | No. of total peptides [16] | No. of unique peptides [16] | No. of unique peptides [20] | No. of total peptides [21] | No. of unique peptides [21] | No. of unique peptides [33]
7 peptides: No. of total peptides [23]
2 peptides: No. of total peptides [6] | No. of unique peptides [6] | No. of total peptides [7] | No. of unique peptides [7] | No. of unique peptides [8] | No. of total peptides [28] | No. of unique peptides [28] | No. of total peptides [31] | No. of unique peptides [31]
5 peptides: No. of total peptides [20]
1 peptides: No. of total peptides [2] | No. of unique peptides [2] | No. of total peptides [3] | No. of unique peptides [3] | No. of total peptides [4] | No. of unique peptides [4] | No. of total peptides [5] | No. of unique peptides [5] | No. of total peptides [10] | No. of unique peptides [10] | No. of total peptides [12] | No. of unique peptides [12] | No. of total peptides [13] | No. of unique peptides [13] | No. of total peptides [14] | No. of unique peptides [14] | No. of total peptides [15] | No. of unique peptides [15] | No. of total peptides [17] | No. of unique peptides [17] | No. of total peptides [19] | No. of unique peptides [19] | No. of total peptides [22] | No. of unique peptides [22] | No. of total peptides [24] | No. of unique peptides [24] | No. of total peptides [25] | No. of unique peptides [25] | No. of total peptides [26] | No. of unique peptides [26] | No. of total peptides [27] | No. of unique peptides [27] | No. of total peptides [29] | No. of unique peptides [29] | No. of total peptides [30] | No. of unique peptides [30] | No. of total peptides [32] | No. of unique peptides [32]
6 peptides: No. of unique peptides [23] | No. of total peptides [33]
